This is an account of results in PMC9288967 (Chem, 2022).

A word on the Kd: it is the concentration at which binding is half-saturated. A higher Kd goes with weaker binding.

Holding throughout (test): BLI
(In BLI a coated tip is dipped into the sample, and binding shifts an interference pattern.)

In test [1] the target is spike RBD of the Alpha variant (B.1.1.7) (SARS-CoV-2, Alpha (B.1.1.7), N501Y).
Test [2] concerns the target spike RBD of the Lambda variant (SARS-CoV-2, Lambda (C.37), strain).
The target in test [3] is spike RBD of the Epsilon variant (SARS-CoV-2, Epsilon (B.1.429), strain).

B1: mNb6(WT) (VHH)
VHH: QVQLVESGGGLVQAGGSLRLSCAASGYIFGRNAMGWYRQAPGKERELVAGITRRGSITYYADSVKGRFTISRDNAKNTVYLQMNSLKPEDTAVYYCAADPASPAYGDYWGQGTQVTVSS
With B1, the Kd in test [1] turned out to be 1.5 nM; in test [2], 2.86 ± 0.77 nM; in test [3], 1.32 ± 0.11 nM.
